According to publication PMC11931385, “Structural and functional analysis of cancer-associated missense variants in the retinoblastoma protein pocket domain” (The Journal of Biological Chemistry, 2025):
Changes are numbered by the printed parent chain. Names may count otherwise. No end group written: not given here. TMR = tetramethyl rhodamine dye

T1: Rb^P A490S (human, UniProt P06400 380-788, A490S)
T1 construct: also called variant 15
T1 sequence (looked up): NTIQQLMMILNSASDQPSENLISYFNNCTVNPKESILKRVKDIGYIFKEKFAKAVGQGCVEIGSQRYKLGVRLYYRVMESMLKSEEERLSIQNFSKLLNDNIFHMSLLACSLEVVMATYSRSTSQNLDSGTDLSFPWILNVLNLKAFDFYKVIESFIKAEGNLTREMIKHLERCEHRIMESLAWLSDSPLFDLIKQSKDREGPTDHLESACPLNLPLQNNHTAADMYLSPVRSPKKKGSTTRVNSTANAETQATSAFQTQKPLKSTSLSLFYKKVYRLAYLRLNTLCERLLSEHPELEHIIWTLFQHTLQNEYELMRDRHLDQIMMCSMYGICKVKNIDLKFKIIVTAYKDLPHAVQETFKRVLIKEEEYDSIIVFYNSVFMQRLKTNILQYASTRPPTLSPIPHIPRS

T2: Rb^P S588F (human, UniProt P06400 380-788, S588F)
T2 construct: also called variant 34
T2 sequence (looked up): T1 sequence (looked up) with S111A, S209F

T3: Rb^P P595L (human, UniProt P06400 380-788, P595L)
T3 construct: also called variant 35
T3 sequence (looked up): T1 sequence (looked up) with S111A, P216L

T4: Rb^P E675Q (human, UniProt P06400 380-788, E675Q)
T4 construct: also called variant 56
T4 sequence (looked up): T1 sequence (looked up) with S111A, E296Q

T5: Rb^P M546I (human, UniProt P06400 380-788, M546I)
T5 construct: also called variant 25
T5 sequence (looked up): T1 sequence (looked up) with S111A, M167I

B1: TMR-E2F1^TD, peptide of the E2F1 transactivation domain (peptide)
peptide: {TMR}-GEGIRDLFDCDFGDLTPLD
notes: also called E2F^TD; source: synthetic peptide, bought: GenScript
B2: TMR-E7^LxCxE, LxCxE peptide of the E7 oncoprotein from HPV (peptide)
peptide: DLYCYEQLN
modifications: also: TMR label, position not given here
notes: source: synthetic peptide, bought: GenScript

What was measured:
Experiment in all cases: fluorescence polarisation; 37 °C, after the 25 °C reading ramped over 7 min to 37 °C and 2 min incubation; unlabeled Rb^P against 1.5 nM TMR-E2F1^TD or 7.5 nM TMR-E7^LxCxE; 25 mM Tris pH 8.0, 200 mM NaCl, 1 mM DTT, 0.1% Tween-20; apparent Kd
Conditions in all cases: both partners purified
Rb^P A490S = biological target: T1, Rb^P A490S
Rb^P S588F = biological target: T2, Rb^P S588F
Rb^P P595L = biological target: T3, Rb^P P595L
Rb^P E675Q = biological target: T4, Rb^P E675Q
Rb^P M546I = biological target: T5, Rb^P M546I

| Binder | Kd (Rb^P A490S) [nM] | Kd (Rb^P S588F) [nM] | Kd (Rb^P P595L) [nM] | Kd (Rb^P E675Q) [nM] | Kd (Rb^P M546I) [nM] |
| --- | --- | --- | --- | --- | --- |
| B1 | 29 | 51 | 83 | 71 | 21 |
| B2 | 15 | 16 | 32 | 46 | 13 |
